From paper PMC8892091
Like-named read-outs stand apart in the source and are kept apart here.

How the values were obtained:
[1] = molecular target: MBP-ALKBH6 R225A/R228A (Homo sapiens, UniProt Q3KRA9 1-238, R225A;R228A); assay: EMSA
[2] = molecular target: T1, MBP-ALKBH6 WT (Homo sapiens, UniProt Q3KRA9 1-238); assay: EMSA
[3] = molecular target: T2, ALKBH6 WT (Homo sapiens, UniProt Q3KRA9 1-238); assay: MST
[4] = molecular target: ALKBH6ΔFlip3 (Homo sapiens, UniProt Q3KRA9 1-238, del139-158); assay: MST
[5] = molecular target: MBP-ALKBH6ΔFlip3 (Homo sapiens, UniProt Q3KRA9 1-238, del139-158); assay: EMSA
[6] = molecular target: T2, ALKBH6 WT; assay: MST; remark: listed apart in the source
[7] = molecular target: T2, ALKBH6 WT; assay: MST; remark: listed apart in the source
[8] = molecular target: T1, MBP-ALKBH6 WT; assay: competition

Binder | binding result [2] | binding result [6] | other results
GGATCAACAGTGCACAGTT (ssDNA) [ssDNA1 (FAM)] | binds | – | binding result [1]: binds
GATCCAGTGATCCAGT (ssDNA) [ssDNA3 (FAM)] | – | – | binding result [3]: binds; binding result [4]: binds
dsDNA1 (dsDNA) DNA 1: AACTTCGTGCAGGCATGGGATCTTGTCTACT DNA 2: AGTAGACAAGATCCCATGCCTGCACGAAGTT | no binding | – | binding result [5]: binds
Bulge DNA2 (dsDNA) DNA 1: AACTTCGTGCAGGCATGGGATCTTGTCTACT DNA 2: AGTAGACAACATGCCTGCACGAAGTT | – | binds | –
Bubble DNA1 (dsDNA) DNA 1: AACTTCGTGCAGGCATGGGATCTTGTCTACT DNA 2: AGTAGACAAGCGACCATGCCTGCACGAAGTT | – | binds | –
Bulge DNA1 (dsDNA) DNA 1: AACTTCGTGCAGGCATGGGATCTTGTCTACT DNA 2: AGTAGA DNA 3: CATGCCTGCACGAAGTT | – | binds | –
AAAAAAAAAAAAAAAAAAAAAAAAAAAAAA (ssRNA) [poly(A) 30 nt] | binds | – | binding result [7]: binds
GGATCAACAGTGCACAGTT (ssDNA) [ssDNA1 (unlabelled)] | – | – | binding result [8]: binds
